Blank lines part the entries; values can stand above or below the molecule they belong to.
B1: Flag-F-Box (F-Box fragment of E3RS) (other, UniProt Q9Y297 1-228, looked up, not shown: small tags and cut ends)
chain: MDPAEAVLQEKALKFMCSMPRSLWLGCSSLADSMPSLRCLYNPGTGALTAFQNSSEREDCNNGEPPRKIIPEKNSLRQTYNSCARLCLNQETVCLASTAMKTENCVAKTKLANGTSSMIVPKQRKLSASYEKEKELCVKYFEQWSESDQVEFVEHLISQMCHYQHGHINSYLKPMLQRDFITALPARGLDHIAENILSYLDAKSLCAAELVCKEWYRVTSDGMLWKKL
notes: domain: F-Box fragment
B2: Flag-tagged E3RS/βTrCP (Flag-E3RS) (other, UniProt Q9Y297 1-605, looked up, not shown: small tags and cut ends)
chain: MDPAEAVLQEKALKFMCSMPRSLWLGCSSLADSMPSLRCLYNPGTGALTAFQNSSEREDCNNGEPPRKIIPEKNSLRQTYNSCARLCLNQETVCLASTAMKTENCVAKTKLANGTSSMIVPKQRKLSASYEKEKELCVKYFEQWSESDQVEFVEHLISQMCHYQHGHINSYLKPMLQRDFITALPARGLDHIAENILSYLDAKSLCAAELVCKEWYRVTSDGMLWKKLIERMVRTDSLWRGLAERRGWGQYLFKNKPPDGNAPPNSFYRALYPKIIQDIETIESNWRCGRHSLQRIHCRSETSKGVYCLQYDDQKIVSGLRDNTIKIWDKNTLECKRILTGHTGSVLCLQYDERVIITGSSDSTVRVWDVNTGEMLNTLIHHCEAVLHLRFNNGMMVTCSKDRSIAVWDMASPTDITLRRVLVGHRAAVNVVDFDDKYIVSASGDRTIKVWNTSTCEFVRTLNGHKRGIACLQYRDRLVVSGSSDNTIRLWDIECGACLRVLEGHEELVRCIRFDNKRIVSGAYDGKIKVWDLVAALDPRAPAGTLCLRTLVEHSGRVFRLQFDEFQIVSSSHDDTILIWDFLNDPAAQAEPPRSPSRTYTYISR
notes: F-box protein, receptor subunit of the IκB-E3; Immunopurified material may carry endogenous Skp1/Cul1; also called β-TrCP/E3RS; WT E3RS
B3: IKK-phosphorylated IκBα (pIκBα) (other, UniProt P25963 1-317, looked up)
chain: MFQAAERPQEWAMEGPRDGLKKERLLDDRHDSGLDSMKDEEYEQMVKELQEIRLEPQEVPRGSEPWKQQLTEDGDSFLHLAIIHEEKALTMEVIRQVKGDLAFLNFQNNLQQTPLHLAVITNQPEIAEALLGAGCDPELRDFRGNTPLHLACEQGCLASVGVLTQSCTTPHLHSILKATNYNGHTCLHLASIHGYLGIVELLVSLGADVNAQEPCNGRTALHLAVDLQNPDLVSLLLKCGADVNRVTYQGYSPYQLTWGRPSTRIQQQLGQLTLENLQMLPESEDEESYDTESEFTEFTEDELPYDDCVFGGQRLTL
modifications: phosphorylated by IKK2 (sites not given); 35S-labelled in the in vitro assays
notes: in the other assays it was phosphorylated in vitro by IKK2
B4: non-phosphorylated IκBα (other, UniProt P25963 1-317, looked up)
chain: B3 chain
B5: WDK2 (Flag-WD with Lys 326 mutated to Ala) (other, UniProt Q9Y297 229-605, looked up, not shown: small tags and cut ends)
chain: IERMVRTDSLWRGLAERRGWGQYLFKNKPPDGNAPPNSFYRALYPKIIQDIETIESNWRCGRHSLQRIHCRSETSKGVYCLQYDDQKIVSGLRDNTIAIWDKNTLECKRILTGHTGSVLCLQYDERVIITGSSDSTVRVWDVNTGEMLNTLIHHCEAVLHLRFNNGMMVTCSKDRSIAVWDMASPTDITLRRVLVGHRAAVNVVDFDDKYIVSASGDRTIKVWNTSTCEFVRTLNGHKRGIACLQYRDRLVVSGSSDNTIRLWDIECGACLRVLEGHEELVRCIRFDNKRIVSGAYDGKIKVWDLVAALDPRAPAGTLCLRTLVEHSGRVFRLQFDEFQIVSSSHDDTILIWDFLNDPAAQAEPPRSPSRTYTYISR
notes: domain: WD fragment (F-Box deleted E3RS); also called Flag-WD mutant WDK2; mutant WD
B6: Flag-HOS/β-TrCP2 (other, human, UniProt Q9UKB1 1-542, looked up, not shown: small tags and cut ends)
chain: MEPDSVIEDKTIELMCSVPRSLWLGCANLVESMCALSCLQSMPSVRCLQISNGTSSVIVSRKRPSEGNYQKEKDLCIKYFDQWSESDQVEFVEHLISRMCHYQHGHINSYLKPMLQRDFITALPEQGLDHIAENILSYLDARSLCAAELVCKEWQRVISEGMLWKKLIERMVRTDPLWKGLSERRGWDQYLFKNRPTDGPPNSFYRSLYPKIIQDIETIESNWRCGRHNLQRIQCRSENSKGVYCLQYDDEKIISGLRDNSIKIWDKTSLECLKVLTGHTGSVLCLQYDERVIVTGSSDSTVRVWDVNTGEVLNTLIHHNEAVLHLRFSNGLMVTCSKDRSIAVWDMASATDITLRRVLVGHRAAVNVVDFDDKYIVSASGDRTIKVWSTSTCEFVRTLNGHKRGIACLQYRDRLVVSGSSDNTIRLWDIECGACLRVLEGHEELVRCIRFDNKRIVSGAYDGKIKVWDLQAALDPRAPASTLCLRTLVEHSGRVFRLQFDEFQIISSSHDDTILIWDFLNVPPSAQNETRSPSRTYTYISR
notes: also called β-TrCP2/HOS

Assays:
[1] = target: IKK-phosphorylated IκBα (pIκBα) (UniProt P25963); assay: pIκBα binding after heat shock, data not shown
[2] = target: T1, hnRNP-U (endogenous protein of 293/293T cells) (UniProt Q00839-2 2-806, limits assumed); assay: anti-Flag immunoprecipitation from 293T cells, Coomassie and Western blot
T1 construct: also called p120; 120 kD protein
Protocol: (§1) The cells were lysed and the extracts immunoprecipitated, using agarose-conjugated anti-Flag (lanes 1-5) and anti-HA (lane 6) antibodies. Immunoprecipitated proteins were analyzed by SDS-PAGE and Coomassie Brilliant Blue staining.

[3] = target: T1, hnRNP-U (endogenous protein of 293/293T …); assay: anti-Flag immunopurification from 293T cells, SDS-PAGE Coomassie
Protocol: as §1

[4] = target: B5; assay: pull-down of 35S-labelled pIκBα on anti-Flag immunobeads, phosphorimaging
Description: The beads were washed extensively and associated proteins analyzed by SDS-PAGE and phosphorimaging.

[5] = target: T1, hnRNP-U (endogenous protein of 293/293T …); assay: pIκBα incubated with anti-hnRNP-U immunobeads carrying the hnRNP-U/E3RS complex, Western blot
Protocol: (§2) IκBα (FIG. 4D, lanes 1,3,4) and IKK phosphorylated IκBα (pIκBα; FIG. 4D, lanes 2,5-7) were incubated with the immunobeads, after which, both the immunobeads (slurry (S); FIG. 4D, lanes 1-3,5) and the post-slurry fractions (PS; FIG. 4D, lanes 4,6) were analyzed by Western blot directly, or after immunoprecipitation of the post-slurry fraction (same as in FIG. 4D, lane 6) with anti-Flag beads (FIG. 4D, lane 7).

[6] = target: T2, HA-hnRNP-U (UniProt Q00839-2 1-806, limits assumed); assay: anti-p65 immunoprecipitation from 293T cells with MEKK and IKK2, anti-HA Western blot
T2 construct: not shown: HA tag

[7] = target: T1, hnRNP-U (endogenous protein of 293/293T …); assay: IκBα incubated with anti-hnRNP-U immunobeads carrying the hnRNP-U/E3RS complex, Western blot
Protocol: as §2

[8] = target: T1, hnRNP-U (endogenous protein of 293/293T …); assay: anti-Flag immunopurification, Flag-peptide elution, Coomassie
Protocol: To detect specifically dissociated proteins, immunobeads were incubated with Flag peptide (FIG. 3B, lanes 1,4,7), pp10 (FIG. 3B, lanes 2,5,8), p10S/E (FIG. 3B, lanes 3,6,9) and the post-slurry fractions were separated by SDS-PAGE.

[9] = target: T1, hnRNP-U (endogenous protein of 293/293T …); assay: anti-Flag immunoprecipitation from 293T cells, Western blot with monoclonal anti-hnRNP-U (also Coomassie, FIG. 2A lane 3)
Protocol: Cells were harvested 24-48 h after transfection, and extracted by suspension in 50 mM Tris pH 7.6, 1 mM dithiothreitol (DTT), 0.1% Nonidet P-40 (NP-40), 1 mM phenyl methyl sulfonyl fluoride, 1% Aprotinin and vortexing for 20 sec. Cell extracts were collected following centrifugation at 20,000 g for 30 min at 4° C. Cell extract (500 μg protein) was adjusted to 150 mM NaCl prior to immunoprecipitation. Flag-tagged proteins were immunoprecipitated with 2 μl of the anti-Flag immunobeads. Immunoprecipitation was for 2 h at 4° C. and the immunobeads were washed 4× in 300 mM NaCl, 1 mM DTT, 0.1% NP-40 and 50 mM Tris, pH 7.6. Flag-tagged proteins were eluted from the Flag immunobeads with 1 mg/ml of Flag peptide in 50 mM Tris, pH 7.6 for 30 min at 25° C. hnRNP-U was immunoprecipitated using 0.2-0.5 μl of the 3G6 antibody and 2-5%1 of Protein G immunobeads.
as §1

- loss of pIκBα binding capacity after heat shock [1]: 50 to 60%
Molecule: E3K2 (Flag-E3RS with the K2 residue Lys 326 mutated to Ala) (from UniProt Q9Y297 1-605)

Molecule: B1
- binding result [2]: no binding

Molecule: B2
- Coomassie staining ratio p120/E3RS [3]: 1.5 ratio p120:E3RS

Molecule: B3
- binding result [4]: no binding
- binding result [5]: no binding
- binding result [6]: no binding

Molecule: B4
- binding result [7]: no binding

Molecule: B5
- binding result [8]: no binding

Molecule: B6
- binding result [9]: no binding

— patent US20040014026A1 (YISSUM RESEARCH DEVELOPMENT COMPANY OF THE HEBREW …, published 2004)
